# Experimental data as given in US12356911B2, “Group of UDP-glycosyltransferase for catalyzing carbohydrate chain elongation and application thereof” (GSYNBIOT (SHANGHAI) CO., LTD, priority 2017, dated 2025).
# B1: GT29-33: Ginseng UDP-glycosyltransferase, 448 amino acids, SEQ ID NO: 6 (protein)
# chain: MDIEKGRISIVMLPFLAHGHISPFFELAKHLSKRNCNIFLCSTPINLSSIKNRVSDKDSSASIKLVELHLPSSPDLPPHYHTTNGLPSHLMVPLRNAFETAAPTFSEILKTLNPDLLIYDFNPSWAPEIASSHNIPAVYFLTSAAATSSMGLHAFKNSGEKYPFPDFYDNSNITPEPPSADKMKLFHDFVACFKRSCDIILIKSFRELEGKYIDFLSTLSKKTLVPVGPLVQDPMGHDEDPKTGHLINWLDKRAESTVVFVCFGSEYFPSNEELEELAIGLEISMVSFILAVRFPEGEKKGILPEGFVQRVGDRGLVVEGWAPQSRILGHSSTGGFVSHCGWSSIMESVKFGVPVIAMARHLDQPLNAKLAAEVGVGMEVMRDENGKYKREAIAEVIRKVVMEKNGEVMRRKARELSEKMKVKGEQEIGRAVEELVQICKKKKQHAQY
# modifications: misc_feature - GT29-33; Panax ginseng
# B2: GT29-43: Ginseng UDP-glycosyltransferase, 442 amino acids, SEQ ID NO.: 96 (protein)
# chain: MDNQKGRISIALLPFLAHGHISPFFELAKQLAKRNCNVFLCSTPINLSSIKDKDSSASIKLVELHLPSSPDLPPHYHTTNGLPSHLMLPLRNAFETAGPTFSEILKTLNPDLLIYDFNPSWAPEIASSHNIPAVYFLTTAAASSSIGLHAFKNPGEKYPFPDFYDNSNITPEPPSADNMKLLHDFIACFERSCDIILIKSFRELEGKYIDLLSTLSDKTLVPVGPLVQDPMGHNEDPKTEQIINWLDKMAESTVVFVCFGSEYFLSNEELEEVAIGLEISTVNFIWAVRLIEGEKKGILPEGFVQRVGDRGLVVEGWAPQARILGHSSTGGFVSHCGWSSIAESMKFGVPVIAMARHLDQPLNGKLAAEVGVGMEVVRDENGKYKREGIAEVIRKVVVEKSGEVIRRKARELSEKMKEKGEQEIDRALEELVQICKKKKDEQ
# modifications: Panax ginseng
# B3: GT29-34: Ginseng UDP-glycosyltransferase, 446 amino acids, SEQ ID NO: 8 (protein)
# chain: MDIEKGRIIIVMLPFLAHGHISPFFELAKHLSKRNCNIFLCSTPINLSSIKNRVSDKDSSASIKLVELHLPSSPDLPPHYHTTNGLPSHLMVPLRNAFETAAPTFSEILKTLNPDLLIYDFNPSWAPEIASSHNIPAVYFLTSAAATSSMGLHAFKNSGEKYPFPDFYDNSNITPEPPSADKMKLFHDFVACFKRSCDIILIKSFRELEGKYIDFLSTLSKKTLVPVGPLVQDPMGHDEDPKTGHLINWLDKRAESTVVFVCFGSEYFPSNEELEELAIGLEISMVSFILAVRFPEGEKKGILPEGFVQRVGDRGLVVEGWAPQARILGHSSTGGFVSHCGWSSIMESVKFGVPVIAMARHLDQPLNAKLAAEVGVGMEVMRDENGKYKREGIAEVIRKVVVEKSGEVMRRKARELSEKMKEKGEEEIDRAVEELVQICKKKKDAQ
# modifications: misc_feature - GT29-34; Panax ginseng
# Columns and labels:
# Type in all cases: biochemical
# [1] = In vitro transglycosylation at C-20, Rd as glycosyl acceptor, UDP-glucose as donor; conditions: crude enzyme (E. coli lysate supernatant); TLC/HPLC, FIG. 2, 3, 11
# Text: (§1) Cell lysate of recombinant E. coli with empty vector pET28a was used as a control.
# [2] = In vitro transglycosylation at C-20, CK as glycosyl acceptor, UDP-arabinose as donor; conditions: crude enzyme (E. coli lysate supernatant); TLC, FIG. 17
# [3] = In vitro transglycosylation at C-3, Rh2 as glycosyl acceptor, UDP-glucose as donor; conditions: crude enzyme (E. coli lysate supernatant); TLC, FIG. 13, FIG. 15
# Text: as §1
# [4] = In vitro transglycosylation at C-3, Rd as glycosyl acceptor, UDP-xylose as donor; conditions: crude enzyme (E. coli lysate supernatant); TLC, FIG. 14
# [5] = In vitro transglycosylation at C-20, CK as glycosyl acceptor, UDP-glucose as donor; conditions: crude enzyme (E. coli lysate supernatant); TLC/HPLC, FIG. 2, 3, 12, 16
# Text: as §1
# As shown in FIG. 16: Protopanaxadiol Ginsenoside CK is used as a glycosyl acceptor, and UDP-glucose is used as a glycosyl donor.
molecule,measurement,setting,value
B1,product formation from Rd and UDP-glucose (Rb1),[1],can catalyze the formation of Rb1
same,product formation from CK and UDP-arabinose (Ginsenoside F3),[2],can catalyze the first glycosyl of C-20 of CK to extend an arabinosyl to generate Ginsenoside F3
B2,product formation from Rh2 and UDP-glucose (Rg3),[3],can all catalyze the extension of a glucosyl at the C-3 glycosyl of Rh2 to generate Rg3
same,product formation from Rd and UDP-xylose (replacement of second glucose at C-3 with xylose),[4],can all catalyze the replacement of the second glucose at C-3 position of Rd with xylose
B3,product formation from Rd and UDP-glucose (Rb1),[1],can catalyze the formation of Rb1
same,product formation from CK and UDP-glucose (Gypenoside LXXV),[5],can catalyze the formation of a new product
same,product formation from CK and UDP-arabinose (Ginsenoside F3),[2],can catalyze the first glycosyl of C-20 of CK to extend an arabinosyl to generate Ginsenoside F3
